One block for each compound: values may come before it.
Key:
subjects with T2DM = test system: subjects with T2DM; set-up: method as in Nauck et al., 1993; Gasbjerg et al., 2020; conditions: pharmacological doses, ref Nauck et al., 1993, Gasbjerg et al., 2020; cited from earlier work
INS-1 832/3 cells [1] = conditions: ref Manchanda et al. (2023); cited from earlier work
INS-1 832/3 cells [2] = conditions: ref Manchanda et al. (2023); cited from earlier work; remark: listed apart in the source
GLP-1R = conditions: various cell types; ref Jorgensen et al., 2005; Manchanda et al., 2023; cited from earlier work
Text: For many GPCRs, homologous desensitization first requires the phosphorylation of the active state of the receptor by the G protein-coupled receptor kinase (GRK) family of kinases. This is then followed by the binding of arrestin, which sterically hinders coupling to G proteins, effectively desensitizing the receptor ([Krasel et al., 2005]). Arrestin can also act as a scaffolding protein, linking the receptor to the cellular endocytic machinery and facilitating internalization ([Ferguson, 2001]). It is now appreciated that arrestin can also act as a signaling molecule in its own right, linking ...

GIPR = conditions: initially considered an antagonist; ref Al-Sabah et al., 2014a; Sparre-Ulrich et al., 2016; cited from earlier work
Text: (§1) [Graaf et al., 2016]). Both receptors are expressed in pancreatic β-cells and other cell types, resulting in numerous pleiotropic effects of their peptide agonists. […] [Liu et al., 2022]; [Drucker and Holst, 2023]). Studies show ...

[3] = test system: animal models of diabetes and obesity; conditions: ref McClean et al., 2007, Gault et al.; cited from earlier work
Text: as §1

[4] = subjects with obesity, phase 2 study, ref Véniant et al., 2024, Amgen; cited from earlier work
Text: as §1

[5] = target: NLuc-labeled chimeric receptor GIP/GLP-1R (GIPR with the C-terminal tail of GLP-1R) (human); experiment: FRET or BRET; BRET in HEK-293 cells co-transfected 1:1 with NLuc-labeled receptor and NES-Venus-mini-G protein; cells in HBSS, agonist (GLP-1 or GIP) for 15 min, coelenterazine h 1 μM; BRET ratio as fold-change from non-stimulated, dose-response of the agonist
[6] = target: NLuc-labeled chimeric receptor GLP-1/GIPR (GLP-1R with the C-terminal tail of GIPR) (human); experiment: as above
[7] = target: NLuc-labeled human GIPR (human) (UniProt P48546); experiment: as above
[8] = target: NLuc-labeled human GLP-1R (human) (UniProt P43220); experiment: as above
[9] = target: SYFP2-labeled chimeric receptor GLP-1/GIPR (GLP-1R with the C-terminal tail of GIPR) (human); experiment: FRET or BRET; BRET in HEK-293 cells co-transfected 1:2 with SYFP2-labeled receptor and Arr3-NLuc; cells in HBSS, agonist (GLP-1 or GIP) for 15 min, coelenterazine h 1 μM; BRET ratio as fold-change from non-stimulated, dose-response of the agonist
[10] = target: RLuc8-labeled chimeric receptor GLP-1/GIPR (GLP-1R with the C-terminal tail of GIPR) (human); experiment: FRET or BRET; BRET in HEK-293 cells co-transfected 1:2 with RLuc8-labeled receptor and Arr3-SYFP2; cells in HBSS, agonist (GLP-1 or GIP) for 15 min, coelenterazine h 1 μM; BRET ratio as fold-change from non-stimulated, dose-response of the agonist

NLuc-labeled human GIPR (human), sequence (P48546 22-466): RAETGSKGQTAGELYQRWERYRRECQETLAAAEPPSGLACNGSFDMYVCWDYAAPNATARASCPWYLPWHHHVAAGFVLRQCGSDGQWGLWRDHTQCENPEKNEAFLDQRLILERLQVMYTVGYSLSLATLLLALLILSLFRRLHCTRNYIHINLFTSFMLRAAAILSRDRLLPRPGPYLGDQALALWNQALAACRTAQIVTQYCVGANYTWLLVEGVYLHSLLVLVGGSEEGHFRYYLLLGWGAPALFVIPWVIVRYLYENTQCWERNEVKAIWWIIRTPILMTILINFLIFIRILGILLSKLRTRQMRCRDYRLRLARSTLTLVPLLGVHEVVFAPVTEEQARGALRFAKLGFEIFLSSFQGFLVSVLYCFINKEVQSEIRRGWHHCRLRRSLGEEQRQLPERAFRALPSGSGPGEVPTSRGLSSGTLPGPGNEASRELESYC
NLuc-labeled human GLP-1R (human), sequence (P43220 24-463): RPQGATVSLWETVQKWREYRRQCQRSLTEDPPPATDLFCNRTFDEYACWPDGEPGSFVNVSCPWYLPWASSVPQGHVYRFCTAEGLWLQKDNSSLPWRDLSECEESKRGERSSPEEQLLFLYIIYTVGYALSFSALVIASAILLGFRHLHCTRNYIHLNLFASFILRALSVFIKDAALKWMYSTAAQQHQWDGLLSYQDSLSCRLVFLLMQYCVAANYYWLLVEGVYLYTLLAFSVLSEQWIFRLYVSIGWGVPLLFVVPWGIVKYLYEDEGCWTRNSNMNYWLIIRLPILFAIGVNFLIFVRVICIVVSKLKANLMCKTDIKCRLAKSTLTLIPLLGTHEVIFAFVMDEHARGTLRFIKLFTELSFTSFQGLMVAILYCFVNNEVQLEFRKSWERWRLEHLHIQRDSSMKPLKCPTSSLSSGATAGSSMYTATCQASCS

Compound: CC[C@H](C)[C@H](NC(=O)[C@H](Cc1ccccc1)NC(=O)[C@H](CCC(=O)O)NC(=O)[C@H](CCCCN)NC(=O)[C@H](C)NC(=O)[C@H](C)NC(=O)[C@H](CCC(N)=O)NC(=O)CNC(=O)[C@H](CCC(=O)O)NC(=O)[C@H](CC(C)C)NC(=O)[C@H](Cc1ccc(O)cc1)NC(=O)[C@H](CO)NC(=O)[C@H](CO)NC(=O)[C@@H](NC(=O)[C@H](CC(=O)O)NC(=O)[C@H](CO)NC(=O)[C@@H](NC(=O)[C@H](Cc1ccccc1)NC(=O)[C@@H](NC(=O)CNC(=O)[C@H](CCC(=O)O)NC(=O)[C@H](C)NC(=O)[C@@H](N)Cc1c[nH]cn1)[C@@H](C)O)[C@@H](C)O)C(C)C)C(=O)N[C@@H](C)C(=O)N[C@@H](Cc1c[nH]c2ccccc12)C(=O)N[C@@H](CC(C)C)C(=O)N[C@H](C(=O)N[C@@H](CCCCN)C(=O)NCC(=O)N[C@@H](CCCNC(=N)N)C(N)=O)C(C)C [GLP-1, Glucagon-like peptide-1]
- Overcoming the impaired incretin effect in T2DM (subjects with T2DM): can overcome this impairment in subjects with T2DM
- GIP- vs GLP-1-stimulated cAMP production (INS-1 832/3 cells [1]): no difference between GIP- and GLP-1-stimulated cAMP production
- GIP- vs GLP-1-stimulated insulin release (INS-1 832/3 cells [2]): no difference between GIP- and GLP-1-stimulated cAMP production or insulin release
- Arrestin recruitment to GLP-1R, in words (GLP-1R): results in the rapid recruitment of arrestin

Compound: (Pro3)GIP: an analog of GIP with a glutamic-acid-to-proline substitution at position 3 (YAPGTFISDYSIAMDKIHQQDFVNWLLAQKGKKNDWKHNITQ; Gastric inhibitory polypeptide; UniProt P09681 52-93, looked up, variant E3P)
- Agonism at GIP receptor (GIPR): low-potency agonist
- Glucose homeostasis and weight gain [3]: improving glucose homeostasis and preventing weight gain

Compound: Maridebart cafraglutide: fully human monoclonal anti-human GIPR antagonist antibody conjugated to two GLP-1R agonist peptides
- Weight loss [4]: robust weight loss

- pEC50 of the agonist GIP for recruitment [5]: 9 -log EC50/M
- pEC50 of the agonist GLP-1 for recruitment [6]: 7.1 -log EC50/M
- pEC50 of the agonist GIP for recruitment [7]: 8.6 -log EC50/M
- pEC50 of the agonist GLP-1 for recruitment [8]: 7.3 -log EC50/M
Compound: NES-Venus-mGαq

- pEC50 of the agonist GIP for recruitment [5]: 8.9 -log EC50/M
- pEC50 of the agonist GLP-1 for recruitment [6]: 7.5 -log EC50/M
- pEC50 of the agonist GIP for recruitment [7]: 8.9 -log EC50/M
- pEC50 of the agonist GLP-1 for recruitment [8]: 7.6 -log EC50/M
Compound: NES-Venus-mGαs

- pEC50 of the agonist GLP-1 for recruitment [9]: 7.3 -log EC50/M
Compound: NLuc-labeled arrestin3 (from UniProt P32121 1-409) (natural protein)

- pEC50 of the agonist GLP-1 for recruitment [10]: 7.18 -log EC50/M
Compound: SYFP2-labeled arrestin3 (from UniProt P32121 1-409) (natural protein)

Reference: article PMC11975949 (Frontiers in Pharmacology, 2025)
